Laboratory results taken from patent US20110059889A1 (SYNTONIX PHARMACEUTICALS, published 2011).
Like-named read-outs stand apart in the source and are kept apart here. Values belong to the binder of their own block, whether it stands above or below them. Numbered stars: 1 amine (or outer) side, 2 acyl side, 3 side chain; on linkers, the order of the positions; unused ones are H or OH. Bridge positions count the residues as written; N and C are the ends. Square brackets hold non-standard residues; d marks the D form. Ends that are not written are not given here. X4 = (3S)‑3‑amino‑2‑oxo‑1‑piperidine‑acetic acid, O=C1[C@@H](N[*:1])CCCN1CC(=O)[*:2]; 5,5‑bicyclic dipeptide mimic = not defined here; Tyr(Me) = COc1ccc(C[C@H](N[*:1])C(=O)[*:2])cc1; Phe(3-Cl) = N[C@@H](Cc1cccc(Cl)c1)C(=O)O; Dip = N[C@H](C(=O)O)C(c1ccccc1)c1ccccc1; Phe(2-Cl) = N[C@@H](Cc1ccccc1Cl)C(=O)O; His(1-Me) = 1-methylhistidine; NMeL = CN[C@@H](CC(C)C)C(=O)O; Pen = CC(C)(S)[C@H](N)C(=O)O; hCys = N[C@@H](CCS)C(=O)O; Sar = CNCC(=O)O

Legend:
[1] = target: T1, soluble human FcRn (shFcRn) (human, UniProt P55899 24-297; P61769 21-119); experiment: IgG competition ELISA
T1 construct: Biotinylated for the ELISA, amine-coupled to a CM5 chip for SPR; also called biotinylated shFcRn

[2] = target: T1, soluble human FcRn (shFcRn); experiment: IgG competition ELISA; remark: listed apart in the source
[3] = target: T1, soluble human FcRn (shFcRn); experiment: SPR pH 6
Experimental: (§1) The following steps were performed to cross-link soluble human or cynomolgus FcRn to the dextran surface of a CM5 sensor chip (Biacore AB, Uppsala, Sweden) by an amine coupling reaction involving 1-ethyl-(3-dimethylaminopropyl)-carbodiimide hydrochloride (EDC) (Biacore AB, Uppsala, Sweden) and N-hydroxysuccinimide (NHS) (Biacore AB, Uppsala, Sweden) as recommended by Biacore (BIAapplications Handbook, version AB, section 4.2, Biacore AB, Uppsala, Sweden). […] Residual sites on the FcRn flow cell were blocked with 1 M ethanolamine hydrochloride pH 8.5 (Biacore AB, Uppsala, Sweden). A control flow cell was blocked with ethanolamine for reference subtraction. For analysis of the monomeric peptides, FcRn was coated to a final density of 4000-5000 response units (RU). For analysis of the peptide dimers, FcRn was coated to a density of 2000-2500 RU. All SPR measurements were performed using a BIACORE 3000 Instrument (Biacore AB Uppsala, Sweden). For measurements done at either pH 6 or pH 7.4, experiments were performed in 50 mM phosphate, 100 mM sodium chloride, 0.01% surfactant P20 (Biacore AB, Uppsala, Sweden).
(§2) Ten, 2-fold dilutions of the peptide were injected over the FcRn-CM5 chip at a rate of 20 μl/min for 2 min. The peptide was dissociated from the chip for 2.5 minutes with buffer. Any remaining peptide was removed from the chip with a 30 second injection of HBS-P buffer (Biacore AB, Uppsala, Sweden) at a rate of 30 μl/min. Sensorgrams were generated and analyzed using BiaEval software version 3.1 (Biacore AB, Uppsala, Sweden). The equilibrium RU observed for each injection was plotted against concentration. The equilibrium KD values were derived by analysis of the plots using the steady state affinity model included in the BiaEval software.

[4] = target: T1, soluble human FcRn (shFcRn); experiment: IgG competition ELISA; remark: listed apart in the source
Experimental: (§3) The wells were coated with 100 μl/well of 1 μg/ml biotinylated-shFcRn in Buffer A. The plate was sealed and incubated at 37° C. for 2 hours. Afterwards, the plate was washed with 200 μl/well of Buffer B (Buffer B: 100 mM MES pH 6, 150 mM NaCl, 0.5% BSA IgG-free (Jackson ImmunoResearch, West Grove, Pa.), 0.05% Tween-20). […] To allow for mixing, the plate was rocked for 2 minutes, sealed and incubated at 37° C. for 2 hours. […] The plate was covered, incubated for 30 minutes at room temperature and washed 4 times with 200 μl/well of ice-cold buffer B. SureBlue TMB substrate solution (100 μl/well, KPL, Gaithersburg, Md.) was added and the plate was allowed to incubate at room temperature until color developed, which took 5 to 10 minutes. Once color developed, 100 μl/well of TMB stop solution (KPL, Gaithersburg, Md.) was added and the absorbance was measured at 450 nm. The data was plotted as absorbance vs. peptide concentration to derive the inhibitory concentration 50% (IC₅₀) values.

[5] = target: T1, soluble human FcRn (shFcRn); experiment: IgG competition ELISA; remark: listed apart in the source
Experimental: as §3

[6] = target: T1, soluble human FcRn (shFcRn); experiment: IgG competition ELISA; remark: listed apart in the source
[7] = target: T1, soluble human FcRn (shFcRn); experiment: SPR pH 7.4
Experimental: as §1, §2

[8] = target: T1, soluble human FcRn (shFcRn); experiment: SPR pH 6; remark: listed apart in the source
Experimental: as §1, §2

B7: Peptide No. 58 (peptide)
peptide: QRFCTGHXGGLYPCNGP
modifications: Pen 4; 2-pyridylalanine 8; disulfide 4-14; C-terminal amide
IC50 [1]: 90 µM

B10: Peptide No. 56 (peptide)
peptide: QRF[Pen]TGH[Tyr(Me)]GGLYPCNGP-NH2
modifications: disulfide 4-14; N-terminus assumed
SMILES: COc1ccc(C[C@@H]2NC(=O)[C@H](Cc3c[nH]cn3)NC(=O)CNC(=O)[C@H]([C@@H](C)O)NC(=O)[C@@H](NC(=O)[C@H](Cc3ccccc3)NC(=O)[C@H](CCCNC(=N)N)NC(=O)[C@@H](N)CCC(N)=O)C(C)(C)SSC[C@@H](C(=O)N[C@@H](CC(N)=O)C(=O)NCC(=O)N3CCC[C@H]3C(N)=O)NC(=O)[C@@H]3CCCN3C(=O)[C@H](Cc3ccc(O)cc3)NC(=O)[C@H](CC(C)C)NC(=O)CNC(=O)CNC2=O)cc1
IC50 [1]: 100 µM

B11: Peptide No. 40 (peptide)
peptide: QRF[Pen]TGHFG[dP]LYPCNGP-NH2
modifications: disulfide 4-14; N-terminus assumed
SMILES: CC(C)C[C@@H]1NC(=O)[C@H]2CCCN2C(=O)CNC(=O)[C@H](Cc2ccccc2)NC(=O)[C@H](Cc2c[nH]cn2)NC(=O)CNC(=O)[C@H]([C@@H](C)O)NC(=O)[C@@H](NC(=O)[C@H](Cc2ccccc2)NC(=O)[C@H](CCCNC(=N)N)NC(=O)[C@@H](N)CCC(N)=O)C(C)(C)SSC[C@@H](C(=O)N[C@@H](CC(N)=O)C(=O)NCC(=O)N2CCC[C@H]2C(N)=O)NC(=O)[C@@H]2CCCN2C(=O)[C@H](Cc2ccc(O)cc2)NC1=O
IC50 [6]: 1.4 µM
Kd [7]: 1.1 µM

B12: Peptide No. 42 (peptide)
peptide: QRF[Pen]TGHFG[dH]LYPCNGP-NH2
modifications: disulfide 4-14; N-terminus assumed
SMILES: CC(C)C[C@@H]1NC(=O)[C@@H](Cc2c[nH]cn2)NC(=O)CNC(=O)[C@H](Cc2ccccc2)NC(=O)[C@H](Cc2c[nH]cn2)NC(=O)CNC(=O)[C@H]([C@@H](C)O)NC(=O)[C@@H](NC(=O)[C@H](Cc2ccccc2)NC(=O)[C@H](CCCNC(=N)N)NC(=O)[C@@H](N)CCC(N)=O)C(C)(C)SSC[C@@H](C(=O)N[C@@H](CC(N)=O)C(=O)NCC(=O)N2CCC[C@H]2C(N)=O)NC(=O)[C@@H]2CCCN2C(=O)[C@H](Cc2ccc(O)cc2)NC1=O
Kd [7]: 20 µM
Kd [8]: 2000 nM

B13: Peptide No. 44 (peptide)
peptide: QRF[Pen]TGHFG[dF]LYPCNGP-NH2
modifications: disulfide 4-14; N-terminus assumed
SMILES: CC(C)C[C@@H]1NC(=O)[C@@H](Cc2ccccc2)NC(=O)CNC(=O)[C@H](Cc2ccccc2)NC(=O)[C@H](Cc2c[nH]cn2)NC(=O)CNC(=O)[C@H]([C@@H](C)O)NC(=O)[C@@H](NC(=O)[C@H](Cc2ccccc2)NC(=O)[C@H](CCCNC(=N)N)NC(=O)[C@@H](N)CCC(N)=O)C(C)(C)SSC[C@@H](C(=O)N[C@@H](CC(N)=O)C(=O)NCC(=O)N2CCC[C@H]2C(N)=O)NC(=O)[C@@H]2CCCN2C(=O)[C@H](Cc2ccc(O)cc2)NC1=O
Kd [7]: 100 µM
Kd [8]: 1700 nM

B14: Peptide No. 43 (peptide)
peptide: QRF[Pen]TGHFG[dI]LYPCNGP-NH2
modifications: disulfide 4-14; N-terminus assumed
SMILES: CC[C@@H](C)[C@H]1NC(=O)CNC(=O)[C@H](Cc2ccccc2)NC(=O)[C@H](Cc2c[nH]cn2)NC(=O)CNC(=O)[C@H]([C@@H](C)O)NC(=O)[C@@H](NC(=O)[C@H](Cc2ccccc2)NC(=O)[C@H](CCCNC(=N)N)NC(=O)[C@@H](N)CCC(N)=O)C(C)(C)SSC[C@@H](C(=O)N[C@@H](CC(N)=O)C(=O)NCC(=O)N2CCC[C@H]2C(N)=O)NC(=O)[C@@H]2CCCN2C(=O)[C@H](Cc2ccc(O)cc2)NC(=O)[C@H](CC(C)C)NC1=O
IC50 [6]: 18 µM
Kd [7]: 41 µM

B16: Peptide No. 33 (peptide)
peptide: QRFCTGHFGGLYP[Pen]NGP-NH2
modifications: disulfide 4-14; N-terminus assumed
SMILES: CC(C)C[C@@H]1NC(=O)CNC(=O)CNC(=O)[C@H](Cc2ccccc2)NC(=O)[C@H](Cc2c[nH]cn2)NC(=O)CNC(=O)[C@H]([C@@H](C)O)NC(=O)[C@@H](NC(=O)[C@H](Cc2ccccc2)NC(=O)[C@H](CCCNC(=N)N)NC(=O)[C@@H](N)CCC(N)=O)CSSC(C)(C)[C@@H](C(=O)N[C@@H](CC(N)=O)C(=O)NCC(=O)N2CCC[C@H]2C(N)=O)NC(=O)[C@@H]2CCCN2C(=O)[C@H](Cc2ccc(O)cc2)NC1=O
IC50 [5]: 18 µM

The remaining lines, values ahead:

IC50 [1]: 32 µM
B1: Peptide No. 224 (peptide)
peptide: RF[Pen]TGH[Dip]GGLYPC-NH2
modifications: disulfide 3-13; N-terminus assumed
SMILES: CC(C)C[C@@H]1NC(=O)CNC(=O)CNC(=O)[C@H](C(c2ccccc2)c2ccccc2)NC(=O)[C@H](Cc2c[nH]cn2)NC(=O)CNC(=O)[C@H]([C@@H](C)O)NC(=O)[C@@H](NC(=O)[C@H](Cc2ccccc2)NC(=O)[C@@H](N)CCCNC(=N)N)C(C)(C)SSC[C@@H](C(N)=O)NC(=O)[C@@H]2CCCN2C(=O)[C@H](Cc2ccc(O)cc2)NC1=O

IC50 [2]: 3.4 µM
Kd [3]: 740 nM
B2: Peptide No. 138 (peptide)
peptide: QRF[Pen]TG[His(1-Me)]FGGLYPCNGP-NH2
modifications: disulfide 4-14

IC50 [4]: 7.3 µM
B3: Peptide No. 193 (peptide)
peptide: RF[Pen]TGHF[X4]LYPC-NH2
modifications: disulfide 3-12; N-terminus assumed
SMILES: CC(C)C[C@@H]1NC(=O)CN2CCC[C@H](NC(=O)[C@H](Cc3ccccc3)NC(=O)[C@H](Cc3c[nH]cn3)NC(=O)CNC(=O)[C@H]([C@@H](C)O)NC(=O)[C@@H](NC(=O)[C@H](Cc3ccccc3)NC(=O)[C@@H](N)CCCNC(=N)N)C(C)(C)SSC[C@@H](C(N)=O)NC(=O)[C@@H]3CCCN3C(=O)[C@H](Cc3ccc(O)cc3)NC1=O)C2=O

IC50 [2]: > 100 µM
Kd [3]: 9900 nM
B4: Peptide No. 266 (peptide)
peptide: RF[Pen]TGAFG[Sar][NMeL]YPC-NH2
modifications: disulfide 3-13; N-terminus assumed
SMILES: CC(C)C[C@H]1C(=O)N[C@@H](Cc2ccc(O)cc2)C(=O)N2CCC[C@H]2C(=O)N[C@H](C(N)=O)CSSC(C)(C)[C@H](NC(=O)[C@H](Cc2ccccc2)NC(=O)[C@@H](N)CCCNC(=N)N)C(=O)N[C@@H]([C@@H](C)O)C(=O)NCC(=O)N[C@@H](C)C(=O)N[C@@H](Cc2ccccc2)C(=O)NCC(=O)N(C)CC(=O)N1C

IC50 [1]: 3.7 µM
B5: Peptide No. 222 (peptide)
peptide: RF[Pen]TGH[Phe(3-Cl)]GGLYPC-NH2
modifications: disulfide 3-13; N-terminus assumed
SMILES: CC(C)C[C@@H]1NC(=O)CNC(=O)CNC(=O)[C@H](Cc2cccc(Cl)c2)NC(=O)[C@H](Cc2c[nH]cn2)NC(=O)CNC(=O)[C@H]([C@@H](C)O)NC(=O)[C@@H](NC(=O)[C@H](Cc2ccccc2)NC(=O)[C@@H](N)CCCNC(=N)N)C(C)(C)SSC[C@@H](C(N)=O)NC(=O)[C@@H]2CCCN2C(=O)[C@H](Cc2ccc(O)cc2)NC1=O

IC50 [5]: 2 µM
B6: Peptide No. 69 (peptide)
peptide: QRF[Pen]TGHFGGLYP[hCys]NGP-NH2
modifications: disulfide 4-14; N-terminus assumed
SMILES: CC(C)C[C@@H]1NC(=O)CNC(=O)CNC(=O)[C@H](Cc2ccccc2)NC(=O)[C@H](Cc2c[nH]cn2)NC(=O)CNC(=O)[C@H]([C@@H](C)O)NC(=O)[C@@H](NC(=O)[C@H](Cc2ccccc2)NC(=O)[C@H](CCCNC(=N)N)NC(=O)[C@@H](N)CCC(N)=O)C(C)(C)SSCC[C@@H](C(=O)N[C@@H](CC(N)=O)C(=O)NCC(=O)N2CCC[C@H]2C(N)=O)NC(=O)[C@@H]2CCCN2C(=O)[C@H](Cc2ccc(O)cc2)NC1=O

IC50 [2]: 1.6 µM
Kd [3]: 840 nM
B8: Peptide No. 248 (peptide)
peptide: RFCTGXFGGLYPC
modifications: Pen 3; Thz 6; Sar 9; NMeL 10; disulfide 3-13; C-terminal amide

IC50 [4]: 0.62 µM
B9: Peptide No. 239 (peptide)
peptide: RFCTGHFXLYPC
modifications: not fully specified; Pen 3; X 8 = 3(S)-3-amino-2-oxo-1-azepine acetic acid in place of Gly-Gly; NMeLeu 9; disulfide 3-12; C-terminal amide

IC50 [1]: 4 µM
B15: Peptide No. 221 (peptide)
peptide: RF[Pen]TGH[Phe(2-Cl)]GGLYPC-NH2
modifications: disulfide 3-13; N-terminus assumed
SMILES: CC(C)C[C@@H]1NC(=O)CNC(=O)CNC(=O)[C@H](Cc2ccccc2Cl)NC(=O)[C@H](Cc2c[nH]cn2)NC(=O)CNC(=O)[C@H]([C@@H](C)O)NC(=O)[C@@H](NC(=O)[C@H](Cc2ccccc2)NC(=O)[C@@H](N)CCCNC(=N)N)C(C)(C)SSC[C@@H](C(N)=O)NC(=O)[C@@H]2CCCN2C(=O)[C@H](Cc2ccc(O)cc2)NC1=O

IC50 [4]: 23 µM
B17: Peptide No. 198 (peptide)
peptide: RF[Pen]TGHF[5,5‑bicyclic dipeptide mimic]LYPC-NH2
modifications: disulfide 3-12; reading uncertain
notes: isomer only in drawing CHEM-US-00084
